Experimental data reported in US9163032B2, “Esters of DCPLA and methods of treatment using the same” (Blanchette Rockefeller Neurosciences Institute, priority 2011, dated 2015).

What was measured:
Wistar rats = experiment: Water maze spatial learning and memory task; assay type: in vivo, rat; settings: for water maze learning performance (escape latency) vs control: 8 doses, rats
Procedure: Water maze spatial learning and memory task (2 training trials/day for 4 days) was used to evaluate effects of oral DCPLA-ME on learning and memory in rats. A visible platform test was conducted after the end of the experiments to evaluate whether the treatment might result in an altered sensorimotor activity and escape motivation.
Male adult Wistar rats (200-250 g) were housed in a temperature-controlled (20-24° C.) room for a week, allowed free access to food and water, and kept on a 12-h light/dark cycle. Rats were anesthetized with sodium pentobarbital (60 mg/kg i.p) and placed in a stereotactic apparatus (Kopf Instruments, Tujunga, Calif.). The core temperature of rats was monitored and kept constant (38.0±0.5° C.) with warming light and pad. Two stainless steel guide cannulas were placed with the tips positioned at the coordinates (anterior-posterior, 0.5 mm; lateral, 1.5 mm; horizontal, 3.2 mm), under aseptic conditions. At the end of surgery and under appropriate anesthesia, rats received (s.c.) banamine (1 mg/kg) and ketoprofen (5 mg/kg) in lactate/Ringer's solution. A 7-day recovery period was allowed before any further experimentation.
On the first day of experiments, all rats were randomly assigned to different groups and swam for 2 min in a 1.5-(diameter)×0.6-m (depth) pool (22±1° C.). On the following day, rats were trained in a two-trial per day task for four consecutive days. Each training trial lasted for up to 2 min, during which rats learned to escape from water by finding a hidden platform that was placed at a fixed location and submerged 1 cm below the water surface. The navigation of the rats was tracked by a video camera. The escape latency and the route of rats' swimming across the pool to the platform were recorded. The quadrant test (1 min) was performed after removing the platform, 24 hr after the last training trial. […]
Data were analyzed using a target quadrant ratio (dividing the target quadrant distance by the average of the non-target quadrant values during the probe test; FIG. 14D).

[1] = tested on: Phosphatidylserine (C2) Binding Site; experiment: 3H-DCPLA-ME binding to rat brain slices with C1 and C2 competitors (film-autoradiography)
Procedure: To determine the binding site of DCPLA-ME, ^3H-DCPLA-ME was incubated with rat brain slices in the absence and presence of known C1 and C2 competitors. More specifically, rat brain sections were fixed with formaldehyde, sliced, and incubated with (1)^3H-DCPLA-ME alone; (2)^3H-DCPLA-ME with DCPLA; (3)^3H-DCPLA-ME with Phorbol ester; or (4)^3H-DCPLA-ME and Bryostatin 1. After incubation, the slices were washed with a buffer made of 130 mM NaCl, 5 mM MgCl, 5 mM KCl, 1 mM EGTA, and 0.1% bovine serum albumin in 10 mM HEPES-NaOH, pH 7.4, dried, and analyzed with film-autoradiography.

[2] = tested on: differentiated human SH-SY5Y cells; experiment: Neuroprotection against ASPD, MTT assay, differentiated SH-SY5Y cells; assay type: cell-based; settings: ASPD alone, compared to untreated cells
Procedure: For differentiation, SH-SY5Y cells were maintained in medium containing 2% serum and treated with 10 μM all-trans-retinoic acid (RA) for 72 hr. Thereafter, the cells were treated with 0.27 nM Bryostatin 1 for 72 hrs. The medium was changed every 3 days with fresh supplementation of RA.
(§1) Viability of cells was measured by MTT assay. MTT (i.e., 3-(4,5-dimethylthiazol-2-yl)-2,5-diphenyltetrazolium bromide) is a tetrazolium salt that is cleaved to formazan by the succinate dehydrogenase, which is only active in viable cells. After solubilization of the formazan, the amount of dye can be quantified with a microplate reader at 570 nm along with a reference of 630 nm. For the MTT assay, 5×10^4 primary rat hippocampal neurons from 18-day-old embryonic Sprague-Dawley rat brains or SH-SY5Y cells were plated on each well of 24-well plates coated with poly-D-lysine. After treatment, the cells were washed with 1× PBS and were incubated with 200 μl of 1 mg/ml MTT solution (Sigma, USA) at 37° C. for 2 hr. Then the MTT-solution was removed and the cells were lysed with 200 μl isopropanol containing 0.04 M HCl and […] for 10 min. Finally, the reading was taken at 570 nm and 630 nm. All the samples were done in triplicate and the data were represented as the percentage of control.
In ASPD-treated cells, the viability was 77.15±0.49% (p<0.0001, n=6) compared to the untreated cells.

[3] = tested on: rat primary hippocampal neurons; experiment: Neurotoxic effect of Aβ1-42 oligomers, MTT viability assay; assay type: cell-based; settings: 20 hr
Procedure: Amylospheroids (ASPDs) and Aβ monomers were prepared following Hoshi, M., et al. (2003) Proc Natl Acad Sci USA 100, 6370-6375, and Noguchi, A., et al. (2009) J Biol Chem 284, 32895-32905. Briefly, Aβ1-42 was dissolved in 1,1,1,3,3,3-hexafluoro-2-propanol and incubated overnight at 4° C. and then 3 hr at 37° C. The dissolved Aβ1-42 was then lyophilized in 1.5 ml polypropylene centrifuge tubes at 40 nmol/tube concentration. For preparing the ASPDs, the lyophilized Aβ was dissolved in phosphate buffered saline (PBS) without Ca^2+ or Mg^2+ at less than 50 μM concentration and rotated for 14 hr at 4° C. After incubation, the Aβ solution was purified using a 100 kDa molecular mass cutoff filter (Amicon Ultra, Millipore) and the high-molecular weight fraction was saved to obtain the most toxic ASPDs. Aβ derived diffusible ligands (ADDLs) were produced as previously described. See Lambert, M. P et al., Proc. Natl. Acad. Sci. USA, 1998, 95: 6448-6453. Briefly, Aβ1-42 was solubilized at 5 mM in dimethyl sulfoxide, diluted to 100 μM in F12k medium and was incubated at 4° C. for 24 hr. The solution was centrifuged at 14000×g for 10 min at 4° C. and the supernatant was used as the ADDLs.
as §1
To assess the neurotoxic effect of different sized oligomers, rat primary hippocampal neurons were treated with variable concentrations of these Aβ1-42 species for 20 hr. Viability of the treated cells was compared to untreated cells using the MTT assay described above.

binding site [1]	3H-DCPLA-ME binding, 30 nM competitor ([1]; 30 nM competitor, rat brain slices)	3H-DCPLA-ME binding, 1 μM competitor ([1]; 1 μM competitor, rat brain slices)	Compound	water maze learning performance (escape latency) vs control (Wistar rats; 5.3 mg/kg intragastric)	water maze learning performance (escape latency) vs control (Wistar rats; 16.0 mg/kg intragastric)	memory retention, target quadrant ratio vs control (Wistar rats; 16.0 mg/kg intragastric, probe test 24 hr after last trial)	viability of SH-SY5Y cells [2]	Viability of primary neuron ([3]; 0.5 nM)	Viability of primary neuron ([3]; 1 nM)	Viability of primary neuron ([3]; 2 nM)	Viability of primary neuron ([3]; 5 nM)	Viability of primary neuron ([3]; 10 nM)	Viability of primary neuron ([3]; 50 nM)	Viability of primary neuron ([3]; 50 nM, listed as ASPDs)	Viability of primary neuron ([3]; 500 nM)
phosphatidylserine (C2) site	64%	37%	CCCCCC1CC1CC1CC1CCCCCCCC(=O)OC (stereo not drawn) [DCPLA-ME, DCPLA methyl ester]	did not reach a significant level	improved learning performance	significant difference									
			ASPD: Amylospheroids from Aβ1-42, 100 kDa filter retentate, containing 39 monomers on average				77.15±0.49%	96.12 ± 0.733 % of control	89.64 ± 5.99 % of control	87.75 ± 0.94 % of control	70.95 ± 1.89 % of control	68.68 ± 0.84 % of control	57.55 ± 3.35 % of control	57.1±4.9 % of control	52.94 ± 3.75 % of control
